Experimental data: patent US20170313776A1 (SORRENTO THERAPEUTICS, published 2017)
Positions count from the first letter of the chain named. Names may count otherwise. Values belong to the binder of their own block, whether it stands above or below them.

Key:
[1] = target: T1, PD-L1 expressed on CHO-PD-L1 cells (UniProt Q9NZQ7 19-290, limits assumed); assay: flow cytometry on CHO-PD-L1 cells
T1 construct: whole, on cells
Source text: (§1) This example illustrates in vitro data for cellular binding EC50 measurements and cell binding specificity. […] The experimental procedure was as follows: CHO-PD-1 cells and CHO-PD-L1 cells were obtained by stably transfecting CHO-K1 cells with PD-1 cDNA ORF clone (Origene RG210364) and PD-L1 cDNA ORF clone (Origene RG213071) respectively. After 2 weeks of Neomycin selection, clones were isolated by Fluorescence-activated cell sorting (FACS) and further expanded. […] For cell binding assays, 50,000 CHO-PD-1 cells, CHO-PD-L1 cells, and ES-2 cells were aliquoted into the wells of a 96-well, v-bottom plate in 100 μl FACS Buffer (PBS+2% FBS). A twelve point, 3× dilution curve of each anti-PD-1 antibody was made in FACS Buffer starting at 50 μg/ml (3.33×10⁻⁷M). Cells were spun down, washed twice with FACS Buffer, and then resuspended in 25 μl of antibody solution in triplicate. After 0.5 hr incubation, cells were washed 1× with FACS Buffer and resuspended in 50 μl PE-conjugated, goat anti-human IgG (γ-chain specific) secondary antibody (Southern Biotech Cat #2040-09). Cells were further incubated for 0.5 hr and then washed 1× with FACS Buffer. Cells were resuspended in 25 μl FACS Buffer and the median fluorescence intensity in the FL2-H channel was determined using the Intellicyt HTFC flow cytometer. Data was analyzed and plotted in Graph Pad Prism using non-linear regression fit.
(§2) Data points on the graph are shown as the median fluorescence intensity (MFI) of positively labeled cells depending on the antibody concentration +/− Std Error.

[2] = target: T2, human PD-1 expressed on cells (human, UniProt Q15116 25-288); assay: flow cytometry on CHO-PD-1 cells
T2 construct: whole, on cells; One entry for cell-surface PD-1; also called CHO-PD-1 cells; Jurkat PD-1 cells
T2 sequence (Q15116 25-288): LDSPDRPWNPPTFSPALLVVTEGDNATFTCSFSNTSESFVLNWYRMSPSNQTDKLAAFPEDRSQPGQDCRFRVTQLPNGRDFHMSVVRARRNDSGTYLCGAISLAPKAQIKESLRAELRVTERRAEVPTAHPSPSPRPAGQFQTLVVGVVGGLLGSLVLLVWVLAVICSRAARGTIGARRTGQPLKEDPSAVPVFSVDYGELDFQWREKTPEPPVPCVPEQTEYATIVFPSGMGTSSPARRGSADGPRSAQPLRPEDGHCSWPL
Source text: as §1, §2

[3] = target: T3, recombinant human PD-1 protein (human, UniProt Q15116 25-167, limits assumed); assay: ELISA on recombinant human PD-1
T3 construct: also called monomeric recombinant human PD-1
T3 sequence (Q15116 25-167 limits assumed): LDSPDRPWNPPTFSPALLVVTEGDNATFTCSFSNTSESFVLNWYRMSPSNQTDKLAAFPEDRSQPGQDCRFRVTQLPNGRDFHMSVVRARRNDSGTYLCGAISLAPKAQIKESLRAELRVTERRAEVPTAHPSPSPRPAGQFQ

[4] = target: T4, recombinant cynomolgus PD-1 (cynomolgus); assay: ELISA on recombinant cynomolgus PD-1
T4 construct: also called cyno PD-1

[5] = target: T2, human PD-1 expressed on cells; assay: flow cytometry on Jurkat T cells stably expressing human PD-1
Source text: Primary antibody binding to Jurkat PD-1 cells was detected by flow cytometry using either anti-heavy chain or light chain antibodies directly conjugated to fluorochromes (identical binding curves were obtained using either detection reagent).

[6] = target: T5, recombinant human PD1 (His-tagged) protein (human, UniProt Q15116 25-167, limits assumed); assay: SPR, antibody captured on anti-human Fc, PD1/His as analyte, 1:1 Langmuir fit
T5 construct: not shown: His tag
T5 sequence (Q15116 25-167 limits assumed): as above
Procedure: Anti-human Fc antibody was immobilized on CMS sensor chip with approximately 1000 RU. Antibodies (about 10 μg/ml) were captured for 60 s at a flow rate 10 μl/min.PD1/His was serially diluted in running buffer (HBS-EP). All measurements were conducted with a flow rate of 30 μL/min. Surfaces were regenerated with 3M MgCl₂ for 60 s. A 1:1 (Langmuir) binding model was used to fit the data.

[7] = target: T6, recombinant mouse PD-1 (mouse, UniProt Q02242 25-167, limits assumed); assay: ELISA, detection with anti-human IgG4 heavy chain or anti-human lambda light chain
T6 sequence (looked up): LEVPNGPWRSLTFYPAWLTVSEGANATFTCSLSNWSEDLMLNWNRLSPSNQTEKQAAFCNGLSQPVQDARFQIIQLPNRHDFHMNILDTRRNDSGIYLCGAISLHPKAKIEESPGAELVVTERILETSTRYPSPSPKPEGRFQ

[8] = target: T3, recombinant human PD-1 protein; assay: Biacore, antibody captured on protein A, monomeric recombinant human PD-1 as analyte
[9] = target: human CTLA-4 (recombinant) (human, UniProt P16410 36-161, limits assumed); assay: ELISA on coated recombinant protein, one antibody concentration (not given)
Sequence of human CTLA-4 (recombinant) (P16410 36-161 limits assumed): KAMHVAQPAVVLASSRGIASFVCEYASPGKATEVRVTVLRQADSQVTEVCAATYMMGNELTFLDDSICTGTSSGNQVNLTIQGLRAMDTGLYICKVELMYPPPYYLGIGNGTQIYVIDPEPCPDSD

[10] = target: human CD28 (recombinant) (human, UniProt P10747 19-152); assay: as above
[11] = target: T7, human ICOS (recombinant) (human, UniProt Q9Y6W8 21-140, limits assumed); assay: as above
T7 sequence (looked up): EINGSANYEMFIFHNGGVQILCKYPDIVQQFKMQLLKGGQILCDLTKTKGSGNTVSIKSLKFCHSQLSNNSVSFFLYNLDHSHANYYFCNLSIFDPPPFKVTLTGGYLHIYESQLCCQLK

[12] = target: T2, human PD-1 expressed on cells; assay: flow cytometry on anti-CD3-activated PBMC
Procedure: (§3) This example illustrates in vitro data for cellular binding EC50 measurements. […] The experimental procedure is as follows. Peripheral blood mononuclear cells (PBMC) were added to the wells of a 24 well plate and stimulated anti-CD3 (3 ng/ml). After three days of culture the cells were harvested and added to the wells of wells of a 96-well, v-bottom plate in 100 μl FACS Buffer (PBS+2% FBS). A twelve point, 3× dilution curve of each anti-PD-1 antibody was made in FACS Buffer starting at 10 μg/ml (0.6×10⁻⁷M). Cells were spun down, washed twice with FACS Buffer, and then resuspended in 25 μl of antibody solution in triplicate. After 0.5 hr incubation, cells were washed 1× with FACS Buffer and resuspended in 50 μl PE-conjugated, goat anti-human IgG (γ-chain specific) secondary antibody (Southern Biotech Cat #2040-09). Cells were further incubated for 0.5 hr and then washed 1× with FACS Buffer. Cells were resuspended in 25 μl FACS Buffer and the median fluorescence intensity in the FL2-H channel was determined using the Intellicyt HTFC flow cytometer. Data was analyzed and plotted in Graph Pad Prism using non-linear regression fit.

[13] = target: T2, human PD-1 expressed on cells; assay: flow cytometry on anti-CD3-activated PBMC; remark: listed apart in the source
Procedure: as §3

[14] = target: T5, recombinant human PD1 (His-tagged) …; assay: BIAcore, mAb captured on anti-human Fc, His-tagged human PD1 as analyte

T1 sequence (Q9NZQ7 19-290 limits assumed): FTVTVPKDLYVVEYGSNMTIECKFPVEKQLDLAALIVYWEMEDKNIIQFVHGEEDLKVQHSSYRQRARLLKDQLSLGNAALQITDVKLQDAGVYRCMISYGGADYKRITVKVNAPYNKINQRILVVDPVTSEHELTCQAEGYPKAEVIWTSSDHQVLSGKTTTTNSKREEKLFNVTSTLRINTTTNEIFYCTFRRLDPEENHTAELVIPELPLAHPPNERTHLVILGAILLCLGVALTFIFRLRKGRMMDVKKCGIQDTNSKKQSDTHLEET

EC50 [2]: 0.779 nM
B1: RG4A6 (IgG) (antibody, V domains shown)
VH: EVQLVESGGGLVQPGGSLRLSCAASGFTFSSYWMHWVRQAPGKGLEWVSSISSSSSYIYYADSVKGRFTISRDNAKNSLYLQMNSLRAEDTAVYYCARDTLEYYGSGILENAMGYYGMDVWGQGTTVTVSS
VL: not shown
notes: Detected with anti-human IgG (gamma chain specific); also called PD1 RG4A6
binding result [1]: no binding (tested: 50 µg/ml (3.33×10^-7M) top concentration)

EC50 [3]: 0.391 nM
EC50 [4]: 0.84 nM
EC50 [2]: 0.0358 nM
EC50 [5]: 25.8 nM
fold maximal binding against competitor 1 [5]: ~2 fold lower
Ka [6]: 1.25e+09 M⁻¹
Kd [6]: 0.802 nM
koff [6]: 0.00104 s⁻¹
kon [6]: 1.3e+06 M⁻¹ s⁻¹
binding result [7]: no binding
Kd [8]: 3.2 nM
fold affinity against competitor 3 [8]: ~10 fold
binding result [9]: no binding
binding result [10]: no binding
binding result [11]: no binding
B2: anti-PD-1 antibody RG1H10 (IgG, isotype not stated in the assay) (antibody, V domains shown)
VH: QVQLVQSGSELKKPGASVKISCKASGYIFSDNGVNWVRQAPGQGLEWMGWINTKIGNPTYAQGFTGRFVFSLDTSISTTYLQISSLQAGDTAVYYCAREHDYYYGMDVWGQGTTVTVSS
VL: QSALTQPPSASGSPGQSVTISCTGTSSDVGGYNYVSWYQHHPGKAPKLMIYEVSKRPSGVPDRFSGSKSAITASLTISGLLTEDEADYYCSAWDDSLNADVFGGGTKVTVL
notes: also called PD1 RG1H10
binding result [1]: no binding (tested: 50 µg/ml (3.33×10^-7M) top concentration)

EC50 [2]: 0.115 nM
B3: SH-A4 (IgG) (antibody, V domains shown)
VH: B2 VH with I76V
VL: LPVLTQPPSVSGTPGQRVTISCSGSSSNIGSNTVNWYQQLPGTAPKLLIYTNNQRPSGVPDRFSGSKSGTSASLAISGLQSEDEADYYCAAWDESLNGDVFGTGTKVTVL
notes: Detected with anti-human IgG (gamma chain specific); also called PD1 SHA4
binding result [1]: no binding (tested: 50 µg/ml (3.33×10^-7M) top concentration)

EC50 [12]: 0.67 nM
EC50 [13]: 0.67 nM
Kd [14]: 1.3 nM
koff [14]: 0.001 s⁻¹
kon [14]: 750000 M⁻¹ s⁻¹
B4: RG1H10 (IgG1) (antibody, V domains shown)
VH: B2 VH
VL: B2 VL
notes: IgG1; also called RG1H10 as immunoglobulin gamma 1

EC50 [12]: 0.047 nM
EC50 [13]: 0.047 nM
Kd [14]: 1.6 nM
koff [14]: 0.0014 s⁻¹
kon [14]: 880000 M⁻¹ s⁻¹
B5: RG1H10 (IgG4 S228P) (antibody, V domains shown)
VH: B2 VH
VL: B2 VL
notes: also called RG1H10 as immunoglobulin gamma 4 with hinge mutation S228P

EC50 [2]: 0.202 nM
B6: GA2 (IgG) (antibody, V domains shown)
VH: B2 VH with I76V
VL: QPVLTQPPSASGTPGQRVTISCSGSSSNIGTNTVNWYQQVPGTAPKLLIHGNDQRPSGVPDRFSGSKSDTSASLAITGLQSDDDADYYCSAWDDSLNADVFGGGTKLTVL
notes: Detected with anti-human IgG (gamma chain specific); also called PD1 GA2
binding result [1]: no binding (tested: 50 µg/ml (3.33×10^-7M) top concentration)

EC50 [2]: 0.223 nM
B7: H7 (IgG) (antibody, V domains shown)
VH: B2 VH with I76V
VL: QSVLTQPASVSGSPGQSVTISCTGSSSDVGAYNFVSWYRQYPGKAPKLLIYEVNKRPSDVPDRFSGSKFGNTASLTVSGLQADDEADYYCSSYAGSTDVFGTGTKVTVL
notes: Detected with anti-human IgG (gamma chain specific); also called PD1 H7
binding result [1]: no binding (tested: 50 µg/ml (3.33×10^-7M) top concentration)

EC50 [2]: 0.183 nM
B8: RG1B3 (IgG) (antibody, V domains shown)
VH: QVQLVQSGAEVKKPGASVKVSCKASGYTFTSYGISWVRQAPGQGLEWMGWISAYNGNTNYAQKLQGRVTMTTDTSTSTAYMELRSLRSDDTAVYYCARGLYGDEDYWGQGTLVTVSS
VL: LPVLTQPPSVSEVPGQRVTISCSGGISNIGSNAVNWYQHFPGKAPKLLIYYNDLLPSGVSDRFSASKSGTSASLAISGLRSEDEADYYCAAWDDNLSAYVFATGTKVTVL
notes: Detected with anti-human IgG (gamma chain specific); also called PD1 RG1B3
binding result [1]: no binding (tested: 50 µg/ml (3.33×10^-7M) top concentration)

EC50 [2]: 2.8 nM
B9: RG2H10 (IgG) (antibody, V domains shown)
VH: QVQLQQSGPGLVRPSQTLSLSCDISGDSVSSNSATWNWIRQSPSRGLEWLGRTFYRSKWYHDYALSVKSRITINPDTSKNQFSLQLNSVSPGDTAVYFCVREDIDGRLDYWGQGTLVTVSS
VL: QPVLTQPASVSGSPGQSITISCTGTSSDVGGYNYVSWYQQHPGKAPKLMIYDVSNRPSGVSNRFSGSKSGNTASLAITGLQSDDDADYYCSAWDDSLNADVFGGGTKLTVL
notes: Detected with anti-human IgG (gamma chain specific); also called PD1 RG2H10
binding result [1]: no binding (tested: 50 µg/ml (3.33×10^-7M) top concentration)
